Experimental data taken from patent US20190169635.

System: alpha-1 antitrypsin (AAT) in the serum of wild-type C57BL/6 mice

Substance: neutrophil elastase
- relative neutrophil elastase activity (colorimetric kinetics of substrate degradation) after incubation with serum: serum from wild-type male and female C57BL/6 mice exhibited a high capacity to inhibit neutrophil elastase, serum from the three founders showed a reduced capacity to do so
